{"source": "patent WO2007014744A2", "about": "(dated 2007)", "binders": {"B1": {"name": "CD95-TNC-PL-SC40-CD95L prodrug (other)", "chain": "LEVARLSSKSVNAQVTDINSKGLELRKTVTTVETQNLEGLHHDGQFCHKPCPPGERKARDCTVNGDEPDCVPCQEGKEYTDKAHFSSKCRRCRLCDEGHGLEVEINCTRTQNTKCRCKPNFFCNSTVCEHCDPCTKCEHGIIKECTLTSNTKCKEEGSRSNPRDIACGCAAAPDIKDLLSRLEELEGLVSSLREQGTGGGSGRPPRDHPVGLLARGGGHPVGLLARGGGHPVGLLARTGLEQVQLVQSGGGMVEPGGSLRLSCAASGFTFSNAWMSWVRQAPGKGLEWVGRIKSKAGGGTAEYAAPVKGRFTISRDDSQNTLYLQMNSLKTDDTAVYYCTTHVYGAPRNWGQGSLVTVSSASTKGPKLEEGEFSEARVQSVLTQPPSVSAAPGQKVTISCSGSSSNIGNNYVSWYVQLPGTAPKLLIYDNNKRFSGVPDRFSGSKSGTSATLGITGLQTGDEADYYCGAWDGSLREAVFGGGTKVTVLGAAAVDDYKDDDDKEFTREKKELRKVAHLTGKSNSRSMPLEWEDTYGIVLLSGVKYKKGGLVINETGLYFVYSKVYFRGQSCNNLPLSHKVYMRNSKYPQDLVMMEGKMMSYCTTGQMWARSSYLGAVFNLTSADHLYVNVSELSLVNFEESQTFFGLYKL", "notes": "Made in HEK293 cells and purified on anti-Flag M2 agarose; Forms covalently associated trimers through the tenascin domain; Crosslinking, gel filtration and native PAGE (about 500 kDa) point to hexamers, i.e. dimers of trimers; also called SC40-CD95L-PD; CD95-TNC-PL-SC40-F-CD95L"}}, "key": {"[1]": {"molecular_target": "T1, fibroblast activation protein (FAP) (UniProt Q12884 1-760, limits assumed)", "T1 construct": "whole, on cells; also called FAP antigen; FAP on HT1080FAP cells", "T1 sequence (looked up)": "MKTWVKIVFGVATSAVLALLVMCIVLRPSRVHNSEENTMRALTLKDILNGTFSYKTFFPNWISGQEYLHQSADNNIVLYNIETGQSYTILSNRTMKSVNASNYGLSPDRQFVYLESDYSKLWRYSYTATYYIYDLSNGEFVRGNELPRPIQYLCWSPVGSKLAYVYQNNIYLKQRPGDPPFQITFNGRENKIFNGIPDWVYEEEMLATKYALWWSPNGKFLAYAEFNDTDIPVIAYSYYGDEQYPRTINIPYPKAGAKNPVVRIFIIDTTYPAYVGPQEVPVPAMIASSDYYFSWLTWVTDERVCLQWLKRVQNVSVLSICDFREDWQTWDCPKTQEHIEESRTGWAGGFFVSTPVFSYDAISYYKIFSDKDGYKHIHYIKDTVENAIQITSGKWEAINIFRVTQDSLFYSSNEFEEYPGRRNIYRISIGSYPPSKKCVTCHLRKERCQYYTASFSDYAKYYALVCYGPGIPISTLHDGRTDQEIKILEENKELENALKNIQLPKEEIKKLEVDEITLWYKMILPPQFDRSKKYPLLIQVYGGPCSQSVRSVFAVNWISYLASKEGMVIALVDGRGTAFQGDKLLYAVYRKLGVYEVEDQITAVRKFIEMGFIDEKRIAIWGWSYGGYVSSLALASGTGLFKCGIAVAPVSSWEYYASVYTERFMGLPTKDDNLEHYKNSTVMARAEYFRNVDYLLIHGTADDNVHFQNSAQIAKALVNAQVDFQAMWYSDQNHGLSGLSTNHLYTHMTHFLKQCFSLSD", "test": "flow cytometry on HT1080FAP against HT1080 cells, 5 ug/ml fusion protein, anti-Flag M2 detection"}, "[2]": {"molecular_target": "the molecule itself", "test": "BS3 chemical crosslinking, gel filtration and native PAGE; multimers up to hexamers, native mass about 500 kDa"}}, "data": [{"binder": "B1", "values": [{"measurement": "binding result", "setting": "[1]", "value": "binds"}, {"measurement": "binding result", "setting": "[2]", "value": "binds"}]}]}
